For assay [1], the target named is T1, TbPIP39 wild type (Trypanosoma brucei). The experiment in a line: SPR; 2 mM citrate. In general terms: In SPR one partner is held on a chip, and binding of the other changes the refractive index at the surface.
For assay [2], the target named is T1, TbPIP39 wild type. The experiment in a line: SPR; 2 mM citrate, steady state.

One may read the Kd as a measure of binding affinity in units of concentration. For orientation: koff means the first-order rate constant of dissociation. Read a high koff as fast dissociation.

B1: TbPTP1 (enzyme)
chain: MSTAKSFPMAQLSTRAQYSRMQREFVQLQRQENPRNINFTTSLKNRHKNRYLDILANEETIYPPVLKAVGAQPGRYPYINGNLIDLDLPHTFVACQAPVPQGVPDFLETLSEKKVDLVVMLTKLREGGVLKAERYWPEEEEDSLSFPESGHDAIKVTRDAEASYEVDAELDIVRRPLVIHVPGKPMHRVLQVQYVGWPDHGVPESAASFDELLSVIKNCVTTSPILVHCSAGIGRTGTLIGAYAALLHIERGILTDSTVYSIVAAMKQKRFGMVQRLEQYAVIYMTVLGRLGVDISGLVSTLNLKA
In the assay with TbPIP39 wild type [1], B1 gave an equilibrium dissociation constant (Kd) of 42 µM and a koff of 0.05 s⁻¹. Further, binding with TbPIP39 wild type [2] was characterised by a dissociation constant (Kd) of 50.8 µM.
